Reference: patent US20240400708A1
Residue numbers refer to the chain shown, from its start. Names and notes keep the numbering of the source.

B1: feline IgG1a S252M/S428M (antibody, part only; not given: Variable domains, not shown: another chain or arm of the molecule)
constant: ASTTAPSVFPLAPSCGTTSGATVALACLVLGYFPEPVTVSWNSGALTSGVHTFPAVLQASGLYSLSSMVTVPSSRWLSDTFTCNVAHPPSNTKVDKTVRKTDHPPGPKPCDCPKCPPPEMLGGPSIFIFPPKPKDTLMISRTPEVTCLVVDLGPDDSDVQITWFVDNTQVYTAKTSPREEQFNSTYRVVSVLPILHQDWLKGKEFKCKVNSKSLPSPIERTISKAKGQPHEPQVYVLPPAQEELSRNKVSVTCLIKSFHPPDIAVEWEITGQPEPENNYRTTPPQLDSDGTYFVYSKLSVDRSHWQRGNTYTCSVMHEALHSHHTQKSLTQSPGK
B2: feline IgG1a mutant ID No. 267: S252F, S434F, Q311W (antibody, part only; not given: Variable domains, not shown: another chain or arm of the molecule)
constant: B1 constant with M138F, Q197W, M316S, S322F
B3: feline IgG1a S252Y/S428M/L314K (antibody, part only; not given: Variable domains, not shown: another chain or arm of the molecule)
constant: B1 constant with M138Y, L200K
B4: feline IgG1a L309I (antibody, part only; not given: variable domains, not shown: another chain or arm of the molecule)
constant: B1 constant with M138S, L195I, M316S
B5: feline IgG1a mutant ID No. 272: S252R, S434F (antibody, part only; not given: variable domains, not shown: another chain or arm of the molecule)
constant: B1 constant with M138R, M316S, S322F
B6: feline IgG1a mutant ID No. 350: S252Y, S428M, S434F, Q311M (antibody, part only; not given: Variable domains, not shown: another chain or arm of the molecule)
constant: B1 constant with M138Y, Q197M, S322F
B7: feline IgG1a mutant ID No. 270: S252F, S434W, Q311W (antibody, part only; not given: variable domains and light chain, not shown: another chain or arm of the molecule)
constant: B1 constant with M138F, Q197W, M316S, S322W
B8: feline IgG1a S252Y/S428M/S434F (antibody, part only; not given: Variable domains, not shown: another chain or arm of the molecule)
constant: B1 constant with M138Y, S322F
B9: feline IgG1a S252Y/S428M/S434L (antibody, part only; not given: Variable domains, not shown: another chain or arm of the molecule)
constant: B1 constant with M138Y, S322L
B10: feline IgG1a S252Y/S428M/D312P (antibody, part only; not given: Variable domains, not shown: another chain or arm of the molecule)
constant: B1 constant with M138Y, D198P
B11: feline IgG1a Q311I (antibody, part only; not given: Variable domains, not shown: another chain or arm of the molecule)
constant: B1 constant with M138S, Q197I, M316S
B12: feline IgG1a mutant ID No. 251: S428M, Q311Y (antibody, part only; not given: Variable domains, not shown: another chain or arm of the molecule)
constant: B1 constant with M138S, Q197Y
B13: feline IgG1a Q311F (antibody, part only; not given: Variable domains, not shown: another chain or arm of the molecule)
constant: B1 constant with M138S, Q197F, M316S
B14: feline IgG1a mutant ID No. 271: S252F, S434Y, Q311W (antibody, part only; not given: Variable domains, not shown: another chain or arm of the molecule)
constant: B1 constant with M138F, Q197W, M316S, S322Y
B15: feline IgG1a mutant ID No. 257: S428M, S434Y (antibody, part only; not given: Variable domains, not shown: another chain or arm of the molecule)
constant: B1 constant with M138S, S322Y
B16: feline IgG1a mutant ID No. 266: Q311W, L314K, S434Y (antibody, part only; not given: Variable domains, not shown: another chain or arm of the molecule)
constant: B1 constant with M138S, Q197W, L200K, M316S, S322Y
B17: feline IgG1a L309G (antibody, part only; not given: Variable domains, not shown: another chain or arm of the molecule)
constant: B1 constant with M138S, L195G, M316S
B18: feline IgG1a S252Y/S428M/S434P (antibody, part only; not given: Variable domains, not shown: another chain or arm of the molecule)
constant: B1 constant with M138Y, S322P
B19: feline IgG1a mutant ID No. 249: S428M, L314K (antibody, part only; not given: variable domains and light chain, not shown: another chain or arm of the molecule; small tags and cut ends)
constant: B1 constant with M138S, L200K
B20: feline IgG1a mutant ID No. 248: S428M, D312P (antibody, part only; not given: Variable domains, not shown: another chain or arm of the molecule)
constant: B1 constant with M138S, D198P
B21: feline IgG1a D399M (antibody, part only; not given: Variable domains, not shown: another chain or arm of the molecule)
constant: B1 constant with M138S, D287M, M316S
B22: feline IgG1a S434F (antibody, part only; not given: Variable domains, not shown: another chain or arm of the molecule)
constant: B1 constant with M138S, M316S, S322F
B23: feline IgG1a Q311M (antibody, part only; not given: Variable domains, not shown: another chain or arm of the molecule)
constant: B1 constant with M138S, Q197M, M316S
B24: feline IgG1a Q311H (antibody, part only; not given: Variable domains, not shown: another chain or arm of the molecule)
constant: B1 constant with M138S, Q197H, M316S
B25: feline IgG1a mutant ID No. 254: S428M, S434N (antibody, part only; not given: Variable domains, not shown: another chain or arm of the molecule)
constant: B1 constant with M138S, S322N
B26: feline IgG1a mutant ID No. 247: S252Y, S428M, S434Y (antibody, part only; not given: Variable domains, not shown: another chain or arm of the molecule)
constant: B1 constant with M138Y, S322Y
B27: feline IgG1a mutant ID No. 268: S252F, S434H, Q311W (antibody, part only; not given: Variable domains, not shown: another chain or arm of the molecule)
constant: B1 constant with M138F, Q197W, M316S, S322H
B28: feline IgG1a mutant ID No. 250: S428M, Q311W (antibody, part only; not given: Variable domains, not shown: another chain or arm of the molecule)
constant: B1 constant with M138S, Q197W
B29: feline IgG1a D399V (antibody, part only; not given: Variable domains, not shown: another chain or arm of the molecule)
constant: B1 constant with M138S, D287V, M316S
B30: feline IgG1a Q311R (antibody, part only; not given: Variable domains, not shown: another chain or arm of the molecule)
constant: B1 constant with M138S, Q197R, M316S
B31: feline IgG1a S252Y/S428M/Q311W (antibody, part only; not given: Variable domains, not shown: another chain or arm of the molecule)
constant: B1 constant with M138Y, Q197W
B32: feline IgG1a S252M/S434N (antibody, part only; not given: Variable domains, not shown: another chain or arm of the molecule)
constant: B1 constant with M316S, S322N
B33: feline IgG1a mutant ID No. 256: S428M, S434W (antibody, part only; not given: variable domains and light chain, not shown: another chain or arm of the molecule)
constant: B1 constant with M138S, S322W
B34: feline IgG1a mutant ID No. 353: S252Y, S428M, S434F, S254V (antibody, part only; not given: Variable domains, not shown: another chain or arm of the molecule)
constant: B1 constant with M138Y, S140V, S322F
B35: feline IgG1a S252Y/S428M/Q311Y (antibody, part only; not given: Variable domains, not shown: another chain or arm of the molecule)
constant: B1 constant with M138Y, Q197Y
B36: feline IgG1a S252Y/S428M (antibody, part only; not given: Variable domains, not shown: another chain or arm of the molecule)
constant: B1 constant with M138Y
B37: feline IgG1a Q311K (antibody, part only; not given: Variable domains, not shown: another chain or arm of the molecule)
constant: B1 constant with M138S, Q197K, M316S
B38: feline IgG1a mutant ID No. 269: S252F, S434R, Q311W (antibody, part only; not given: Variable domains, not shown: another chain or arm of the molecule)
constant: B1 constant with M138F, Q197W, M316S, S322R
B39: feline IgG1a S252M/S428M/S434N/H436Y (antibody, part only; not given: Variable domains, not shown: another chain or arm of the molecule)
constant: B1 constant with S322N, H324Y
B40: feline IgG1a mutant ID No. 252: S428M, S434F (antibody, part only; not given: variable domains and light chain, not shown: another chain or arm of the molecule)
constant: B1 constant with M138S, S322F
B41: feline IgG1a Y404Q (antibody, part only; not given: Variable domains, not shown: another chain or arm of the molecule)
constant: B1 constant with M138S, Y292Q, M316S
B42: feline IgG1a mutant ID No. 323: S428Y, D312P, S434Y, D399M, D401R, T403R (antibody, part only; not given: Variable domains, not shown: another chain or arm of the molecule)
constant: B1 constant with M138S, D198P, D287M, D289R, T291R, M316Y, S322Y
B43: feline IgG1a G402R (antibody, part only; not given: Variable domains, not shown: another chain or arm of the molecule)
constant: B1 constant with M138S, G290R, M316S
B44: feline IgG1a S252M/S428M/S434N (antibody, part only; not given: Variable domains, not shown: another chain or arm of the molecule)
constant: B1 constant with S322N
B45: feline IgG1a mutant ID No. 246: S252Y, S428M, S434W (antibody, part only; not given: Variable domains, not shown: another chain or arm of the molecule)
constant: B1 constant with M138Y, S322W

Legend:
[1] = target: feline FcRn complex (FcRn-α subunit and β-microglobulin) (feline); assay: SPR (Biacore), FcRn on SA chip, pH 6
[2] = target: feline FcRn complex (FcRn-α subunit and β-microglobulin) (feline); assay: SPR (Biacore), FcRn on SA chip, pH 7.4
[3] = target: feline FcRn complex (FcRn-α subunit and β-microglobulin), biotin labeled (feline); assay: SPR, pH 6
[4] = target: feline FcRn complex (FcRn-α subunit and β-microglobulin), biotin labeled (feline); assay: SPR, pH 7.4

Molecule | Kd [1] | Kd [2] | Kd [3] | Kd [4]
feline IgG1a mutant ID No. 260: S252Y, S254T, T256E (antibody) | 13.2 nM | 66.5 nM | – | –
feline IgG1a mutant ID No. 366: S252Y, S434R, E430I (antibody) | 0.322 nM | 26.1 nM | – | –
feline IgG1a mutant ID No. 365: S252Y, S434R, E430I (antibody) | 0.296 nM | 28.9 nM | – | –
feline IgG1a mutant ID No. 357: S252Y, S434R, A431K (antibody) | 0.769 nM | 25.9 nM | – | –
feline IgG1a mutant ID No. 358: S252Y, S434R, A431K (antibody) | 0.748 nM | 28.3 nM | – | –
feline IgG1a mutant ID No. 278: S252R, S434H, Q311W (antibody) | 5.45 nM | 5910 nM | – | –
B1 | – | – | 7.27 nM | 19.5 nM
B2 | 4.15 nM | 4030 nM | – | –
B3 | – | – | 2.13 nM | 25 nM
B4 | – | – | 6.81 nM | 4530 nM
B5 | 7.96 nM | 11900 nM | – | –
B6 | – | 4.89 nM | – | –
B7 | 3.68 nM | 2640 nM | – | –
B8 | – | – | 0.0207 nM | 9.13 nM
B9 | – | – | 6.91 nM | 28.9 nM
B10 | – | – | 0.796 nM | 25.3 nM
B11 | – | – | 7 nM | 77.1 nM
B12 | 5.83 nM | 20.3 nM | – | –
B13 | – | – | 8.85 nM | 1370 nM
B14 | 0.0969 nM | 6.21 nM | – | –
B15 | 0.264 nM | 21.9 nM | – | –
B16 | 2.8 nM | 388 nM | – | –
B17 | – | – | 9.12 nM | 54.5 nM
B18 | – | – | 4.86 nM | 44.4 nM
B19 | 0.978 nM | 19300 nM | – | –
B20 | 5.7 nM | 23.7 nM | – | –

Molecule | Kd [1] | Kd [2] | Kd [3] | Kd [4]
B21 | – | – | 5.33 nM | 46.8 nM
B22 | – | – | 0.745 nM | 21 nM
B23 | – | – | 4.97 nM | 5100 nM
B24 | – | – | 5.84 nM | 93.7 nM
B25 | 10.6 nM | 8.83 nM | – | –
B26 | 0.0902 nM | 7.65 nM | – | –
B27 | 14.3 nM | 10700 nM | – | –
B28 | 5.56 nM | 33.2 nM | – | –
B29 | – | – | 8.29 nM | 2880 nM
B30 | – | – | 4.56 nM | 67.2 nM
B31 | – | – | 0.506 nM | 18.8 nM
B32 | – | – | 14.8 nM | 33.8 nM
B33 | 0.193 nM | 31.6 nM | – | –
B34 | – | 6.68 nM | – | –
B35 | – | – | 2.4 nM | 39.9 nM
B36 | – | – | 2.58 nM | 39.2 nM
B37 | – | – | 4.85 nM | 1750 nM
B38 | 11.3 nM | 1520 nM | – | –
B39 | – | – | 20.5 nM | 28.7 nM
B40 | 0.19 nM | 27.4 nM | – | –
B41 | – | – | 9.96 nM | 9940 nM
B42 | – | 1300 nM | – | –
B43 | – | – | 6.1 nM | 1200 nM
B44 | – | – | 8.51 nM | 15.3 nM
B45 | 0.0406 nM | 7.91 nM | – | –
